The text below walks through data of patent US20050118646A1.

Test [1] has as its target Neutravidin (UltraLink neutravidin beads, Pierce; neutravidin protein) (UniProt P02701). Kind of test: ELIFA; binding of the biotinylated protein to Ultralink Neutravidin beads (through biotin).
The target is the same in test [2]. Kind of test: Western blot (streptavidin-HRP) of sample and supernatant after binding to Neutravidin beads. A general note: Immunoblotting shows a protein as a band on a membrane.

UniProt P02701, sequence (P02701 25-152): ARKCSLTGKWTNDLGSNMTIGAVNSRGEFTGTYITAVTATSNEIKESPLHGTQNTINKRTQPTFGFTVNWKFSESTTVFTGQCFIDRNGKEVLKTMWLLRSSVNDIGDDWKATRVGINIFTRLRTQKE

In test [1], “E24-tagged Grb2 (AviTag-TEV cleavage site-His6-PrC-Grb2), biotinylated (from UniProt P62993 1-217)” returned a Binding [%] of 100%. Moreover, in test [2], the percent bound to the beads is over 80%.
Substance “E25-tagged Grb2 (AviTag-(G4S)2-TEV cleavage site-His6-PrC-Grb2), biotinylated (from UniProt P62993 1-217)” had a Binding [%] in test [1] of 100%. In addition, the percent bound to the beads in test [2] is over 80%.
In test [1], “E25-tagged CDKN1b (AviTag-(G4S)2-TEV cleavage site-His6-PrC-CDKN1b), biotinylated (from UniProt P46527 1-198)” registered a Binding [%] of 100%. This substance also returned a percent bound to the beads in test [2] of over 80%.
In the same order, the values of “E24-tagged NAPA (AviTag-TEV cleavage site-His6-PrC-NAPA), biotinylated (from UniProt P54920 1-295)” are 100% and over 80%.
In the same order, the values of “E24-tagged CDKN1b (AviTag-TEV cleavage site-His6-PrC-CDKN1b), biotinylated (from UniProt P46527 1-198)” are 100% and over 80%.
For the substance “E25-tagged NAPA (AviTag-(G4S)2-TEV cleavage site-His6-PrC-NAPA), biotinylated (from UniProt P54920 1-295)”, the Binding [%] in test [1] was 100%. Also, in test [2], the percent bound to the beads was over 80%.
